Test [1] addresses T1, androgen receptor, wild type, full length (UniProt P10275 1-920).
T1 construct: also called AR; wtAR
T1 sequence (looked up): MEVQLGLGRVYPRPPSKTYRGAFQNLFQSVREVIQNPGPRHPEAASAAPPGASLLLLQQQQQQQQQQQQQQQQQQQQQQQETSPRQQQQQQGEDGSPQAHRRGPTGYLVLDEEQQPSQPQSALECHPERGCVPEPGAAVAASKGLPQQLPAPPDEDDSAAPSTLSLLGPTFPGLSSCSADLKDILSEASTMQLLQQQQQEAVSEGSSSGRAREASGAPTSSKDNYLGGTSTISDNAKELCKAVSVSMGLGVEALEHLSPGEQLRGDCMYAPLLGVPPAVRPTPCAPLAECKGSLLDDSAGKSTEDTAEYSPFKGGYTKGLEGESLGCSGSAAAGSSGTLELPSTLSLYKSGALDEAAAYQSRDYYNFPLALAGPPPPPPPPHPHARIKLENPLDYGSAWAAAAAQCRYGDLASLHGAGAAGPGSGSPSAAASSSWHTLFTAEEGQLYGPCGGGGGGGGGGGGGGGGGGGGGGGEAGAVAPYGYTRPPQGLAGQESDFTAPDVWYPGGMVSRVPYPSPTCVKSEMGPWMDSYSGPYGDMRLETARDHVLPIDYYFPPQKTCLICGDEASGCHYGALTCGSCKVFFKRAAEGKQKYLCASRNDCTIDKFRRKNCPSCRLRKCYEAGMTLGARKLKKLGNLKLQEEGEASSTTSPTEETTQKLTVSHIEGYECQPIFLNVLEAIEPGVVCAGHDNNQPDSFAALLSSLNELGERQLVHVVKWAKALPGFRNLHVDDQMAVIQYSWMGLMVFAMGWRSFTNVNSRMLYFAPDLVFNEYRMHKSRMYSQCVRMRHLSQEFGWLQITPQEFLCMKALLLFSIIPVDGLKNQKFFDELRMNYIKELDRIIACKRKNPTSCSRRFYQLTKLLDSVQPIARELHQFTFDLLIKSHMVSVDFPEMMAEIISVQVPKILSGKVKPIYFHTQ
Nature of the test: GST pull-down of 35S-AR with PTEN deletion mutants.

Test [2] deals with T1, androgen receptor, wild type, full …. The experiment in a line: co-immunoprecipitation in PC-3(AR)2 cells overexpressing Flag-Smad3, Flag-Smad4 and AR.
Test [3] has the same target. The experiment in a line: co-immunoprecipitation in prostate cancer cells.
The target is the same in test [4]. The experiment in a line: anti-Smad3 immunoprecipitation from PC-3(AR)2 cells, immunoblot for AR.

B1: GST-PTEN-#3 (aa 253-403) (other, UniProt P60484 253-403, looked up)
chain: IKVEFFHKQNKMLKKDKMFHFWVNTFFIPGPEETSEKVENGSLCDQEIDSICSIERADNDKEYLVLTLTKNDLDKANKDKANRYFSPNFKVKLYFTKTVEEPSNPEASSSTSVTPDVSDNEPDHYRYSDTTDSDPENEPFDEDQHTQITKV
notes: range 253-403; not shown: glutathione S-transferase (GST), pGEX-3x vector
Turning to B1, in test [1], the binding result is “no binding”.

B2: N-terminal Flag-tagged, full-length Smad4 (other, human, UniProt Q13485 1-552, looked up)
chain: MDNMSITNTPTSNDACLSIVHSLMCHRQGGESETFAKRAIESLVKKLKEKKDELDSLITAITTNGAHPSKCVTIQRTLDGRLQVAGRKGFPHVIYARLWRWPDLHKNELKHVKYCQYAFDLKCDSVCVNPYHYERVVSPGIDLSGLTLQSNAPSSMMVKDEYVHDFEGQPSLSTEGHSIQTIQHPPSNRASTETYSTPALLAPSESNATSTANFPNIPVASTSQPASILGGSHSEGLLQIASGPQPGQQQNGFTGQPATYHHNSTTTWTGSRTAPYTPNLPHHQNGHLQHHPPMPPHPGHYWPVHNELAFQPPISNHPAPEYWCSIAYFEMDVQVGETFKVPSSCPIVTVDGYVDPSGGDRFCLGQLSNVHRTEAIERARLHIGKGVQLECKGEGDVWVRCLSDHAVFVQSYYLDREAGRAPGDAVHKIYPSAYIKVFDLRQCHRQMQQQAATAQAAAAAQAAAVAGNIPGPGSVGGIAPAISLSAAAGIGVDDLRRLCILRMSFVKGWGPDYPRQSIKETPCWIEIHLHRALQLLDEVLHTMPIADPQPLD
notes: Expressed in PC3-AR2 cells; also called Flag-Smad4; FLAG-Smad4; not shown: N-terminal Flag tag
For B2, the binding result in test [2] was “binds”.

B3: PTEN (phosphatase and tensin homolog deleted on chromosome ten), wild type, full length (enzyme)
chain: not shown
notes: Stood as in vitro expressed 35S-PTEN, as Dox-induced PTEN in LNCaP PTEN-C1 cells, as endogenous PTEN of CWR22 cells and as transfected PTEN in COS-1 cells; also called [35S]-PTEN; pCDNA3-PTEN
Consider B3, for which the binding result in test [3] is given as “binds”.

B4: GST-PTEN-#1 (aa 1-107) (other, UniProt P60484 1-107, looked up)
chain: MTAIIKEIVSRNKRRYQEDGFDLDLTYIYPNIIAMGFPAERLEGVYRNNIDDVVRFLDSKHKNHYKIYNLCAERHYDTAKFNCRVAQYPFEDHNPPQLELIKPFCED
notes: not shown: glutathione S-transferase (GST), pGEM-KG vector
In the case of B4, the binding result in test [1] is “no binding”.

B5: N-terminal Flag-tagged, full-length Smad3 (other, human, UniProt P84022 1-425, looked up)
chain: MSSILPFTPPIVKRLLGWKKGEQNGQEEKWCEKAVKSLVKKLKKTGQLDELEKAITTQNVNTKCITIPRSLDGRLQVSHRKGLPHVIYCRLWRWPDLHSHHELRAMELCEFAFNMKKDEVCVNPYHYQRVETPVLPPVLVPRHTEIPAEFPPLDDYSHSIPENTNFPAGIEPQSNIPETPPPGYLSEDGETSDHQMNHSMDAGSPNLSPNPMSPAHNNLDLQPVTYCEPAFWCSISYYELNQRVGETFHASQPSMTVDGFTDPSNSERFCLGLLSNVNRNAAVELTRRHIGRGVRLYYIGGEVFAECLSDSAIFVQSPNCNQRYGWHPATVCKIPPGCNLKIFNNQEFAALLAQSVNQGFEAVYQLTRMCTIRMSFVKGWGAEYRRQTVTSTPCWIELHLNGPLQWLDKVLTQMGSPSIRCSSVS
notes: Expressed in PC-3 or PC-3(AR)2 cells; also called Flag-Smad3; FLAG-Smad3; not shown: N-terminal Flag tag
Regarding B5, in test [2], the binding result is “binds”.

B6: Smad3 (full length, untagged) (other, human, UniProt P84022 1-425, looked up)
chain: MSSILPFTPPIVKRLLGWKKGEQNGQEEKWCEKAVKSLVKKLKKTGQLDELEKAITTQNVNTKCITIPRSLDGRLQVSHRKGLPHVIYCRLWRWPDLHSHHELRAMELCEFAFNMKKDEVCVNPYHYQRVETPVLPPVLVPRHTEIPAEFPPLDDYSHSIPENTNFPAGIEPQSNIPETPPPGYLSEDGETSDHQMNHSMDAGSPNLSPNPMSPAHNNLDLQPVTYCEPAFWCSISYYELNQRVGETFHASQPSMTVDGFTDPSNSERFCLGLLSNVNRNAAVELTRRHIGRGVRLYYIGGEVFAECLSDSAIFVQSPNCNQRYGWHPATVCKIPPGCNLKIFNNQEFAALLAQSVNQGFEAVYQLTRMCTIRMSFVKGWGAEYRRQTVTSTPCWIELHLNGPLQWLDKVLTQMGSPSIRCSSVS
notes: also called endogenous Smad3; [35S]-labeled Smad3
Take B6: in test [4], the binding result is “binds”.

The values above are taken from patent US20040235717A1 (published 2004).
